Patent publication US20060110769A1 (Bayer, published 2006)

Target: mouse hypoxia inducible factor-2 alpha (mouse, UniProt P97481 1-874)
Assay: cell-based or functional assay

Chain of mouse hypoxia inducible factor-2 alpha (P97481 whole entry): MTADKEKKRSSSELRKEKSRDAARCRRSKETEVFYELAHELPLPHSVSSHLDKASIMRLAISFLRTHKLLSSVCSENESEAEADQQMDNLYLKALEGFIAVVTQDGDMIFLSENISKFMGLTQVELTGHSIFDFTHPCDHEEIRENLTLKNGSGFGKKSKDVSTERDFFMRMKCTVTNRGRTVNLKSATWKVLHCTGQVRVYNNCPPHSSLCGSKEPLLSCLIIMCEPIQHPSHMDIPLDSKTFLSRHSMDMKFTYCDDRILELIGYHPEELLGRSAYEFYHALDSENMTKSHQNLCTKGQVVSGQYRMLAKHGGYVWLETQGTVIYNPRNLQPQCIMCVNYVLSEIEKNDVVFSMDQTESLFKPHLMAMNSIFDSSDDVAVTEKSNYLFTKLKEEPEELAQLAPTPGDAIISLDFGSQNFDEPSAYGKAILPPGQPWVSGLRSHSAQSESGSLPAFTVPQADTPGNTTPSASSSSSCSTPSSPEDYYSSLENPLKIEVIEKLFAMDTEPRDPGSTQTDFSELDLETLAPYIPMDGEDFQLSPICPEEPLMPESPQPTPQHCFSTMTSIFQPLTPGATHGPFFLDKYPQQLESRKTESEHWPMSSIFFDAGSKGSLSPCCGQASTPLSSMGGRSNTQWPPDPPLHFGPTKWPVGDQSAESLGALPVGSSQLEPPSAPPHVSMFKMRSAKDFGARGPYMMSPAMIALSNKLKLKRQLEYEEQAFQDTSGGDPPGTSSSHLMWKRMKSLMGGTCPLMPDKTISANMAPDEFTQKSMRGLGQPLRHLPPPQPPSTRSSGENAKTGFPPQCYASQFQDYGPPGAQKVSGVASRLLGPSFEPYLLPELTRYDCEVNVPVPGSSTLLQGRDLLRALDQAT

activity of HIF-2 alpha on the hypoxia responsive reporter gene construct (equal amounts of each plasmid); activity of PH-2 relative to EGLN3: 2 fold less active than EGLN3
B1: human prolyl 4-hydroxylase PH-2 (enzyme)
chain: MAAAAVTGQRPETAAAEEASRPQWAPPDHCQAQAAAGLGDGEDAPVRPLCKPRGICSRAYFLVLMVFVHLYLGNVLALLLFVHYSNGDESSDPGPQHRAQGPGPEPTLGPLTRLEGIKVGHERKVQLVTDRDHFIRTLSLKPLLFEIPGFLTDEECRLIIHLAQMKGLQRSQILPTEEYEEAMSTMQVSQLDLFRLLDQNRDGHLQLREVLAQTRLGNGWWMTPESIQEMYAAIKADPDADGVLSLQEFSNMDLRDFHKYMRSHKAESSELVRNSHHTWLYQGEGAHHIMRAIRQRVLRLTRLSPEIVELSEPLQVVRYGEGGHYHAHVDSGPVYPETICSHTKLVANESVPFETSCRYMTVLFYLNNVTGGGETVFPVADNRTYDEMSLIQDDVDLRDTRRHCDKGNLRVKPQQGTAVFWYNYLPDGQGWVGDVDDYSLHGGCLVTRGTKWIANNWINVDPSRARQALFQQEMARLAREGGTDSQPEWALDRAYRDARVEL
